Residue numbers refer to the chain shown, from its start. Names and notes keep the numbering of the source.
T1: SbGFT (Sorghum bicolor, UniProt C5WU82)
T1 construct: gene SORBI_3001G181300; synthetic gene, C-terminal 6xHis tag, E. coli BL21(DE3); monomer; 317 residues (apo crystal: A6-D317, C260S/C314S)
T1 sequence (C5WU82 1-317): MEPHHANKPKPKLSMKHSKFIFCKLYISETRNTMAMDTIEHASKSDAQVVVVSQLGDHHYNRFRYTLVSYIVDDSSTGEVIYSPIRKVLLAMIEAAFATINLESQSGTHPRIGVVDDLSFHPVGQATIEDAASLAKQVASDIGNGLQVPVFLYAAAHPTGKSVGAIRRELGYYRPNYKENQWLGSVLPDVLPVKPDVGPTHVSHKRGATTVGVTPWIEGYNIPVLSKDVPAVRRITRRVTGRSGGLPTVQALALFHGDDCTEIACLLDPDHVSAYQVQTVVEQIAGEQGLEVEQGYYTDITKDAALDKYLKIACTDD

B1: ZmGFT-Qi319 (Zea mays) (protein)
chain: MEPHHANKPKPRPKLSAKHSKFISCKLYISESRNATAVDAVERASKSDPQVVVVSQFGDHHYNRFRYTLVSYIVVDDGGGGGSSAAGEATVVVHSPIRKVLLAMIEAAFSSIDLESQSGAHPRMGVVDDLSFHPVGQATVEDAASLARQVASDIACIAAVPVFLYAAAHPAGKSVGAVRRELGYYRPNYRGNQWSGSVLPDVLPVKPDVGPAHVVSHKRGATTVGVTPWIEGYNVPVLCKDVATVRRITRGVTGRSGGLPTVQALALFHGDDCTEIACLLDPDHASAYQVQTVVEQIAGDQGLEVEQGYYTDITKDEALDKYLKIACADD
notes: natural allele; C-terminal 10xHis tag, modified pFastBac1, Sf-9 insect cells; monomer
B2: ZmGFT-Qi319 (Zea mays; G232N) (protein)
chain: B1 chain with G232N
notes: as for B1
B3: ZmGFT-B73 (Zea mays) (protein)
chain: MEPHHANKPRPKLSATKHSKFISCKLYISESRNATAVDAVERASKSDPQVVVVSQFGDHHYNRFRYTLVSYIVVVDGGGSSAAGEATVVHSPIRKVLLAMIEAAFSSIDLESQSGAHPRIGVVDDLSFHPVGQATIEDAASLARQVASDIACIAAVPVFLYAAAHPAGKSVGAVRRELGYYRPNYRGNQWSGSVLPNVLPVKPDVGPAHVVSHKRGATTVGVTPWIENYNVPVLCKDVATVRRITRGVTGRSGGLPTVQALALFHGDDCTEIACLLDPDHASAYQVQTVVEQIAGDQGLEVEQGYYTDITKDEALDKYLKIACADD
notes: C-terminal 10xHis tag, modified pFastBac1, Sf-9 insect cells; monomer; annotated 326 residues; Asn228
B4: ZmGFT-B73 (Zea mays; N228G) (protein)
chain: B3 chain with N228G
notes: as for B3

Columns and labels:
Experiment in all cases: LC-MS of MeFox formation, initial rates, Michaelis-Menten fit
Details in all cases: 50 mM sodium phosphate pH 7.0, 10 mM beta-mercaptoethanol, 30 °C, 0.5 µM protein
SbGFT = target: T1, SbGFT; type: biochemical
[1] = substrate: CN1c2c(nc(N)[nH]c2=O)NC[C@@H]1CNc1ccc(C(=O)N[C@@H](CCC(=O)O)C(=O)O)cc1; type: biochemical, Zea mays
[2] = substrate: CN1c2c(nc(N)[nH]c2=O)NC[C@@H]1CNc1ccc(C(=O)N[C@@H](CCC(=O)O)C(=O)O)cc1; type: biochemical, Zea mays; remark: listed apart in the source
Text: LC-MS of MeFox formation, initial rates, Michaelis-Menten fit on ZmGFT-Qi319 | reduced approximately by sixfold for the mutant ZmGFT‐Qi319^G232N

| Molecule | K m (SbGFT) | Km [1] [µM] | kcat [1] [s⁻¹] | kcat/Km [1] [M⁻¹ s⁻¹] | Km [2] [µM] | kcat [2] [s⁻¹] | kcat/Km [2] [M⁻¹ s⁻¹] |
| --- | --- | --- | --- | --- | --- | --- | --- |
| CN1c2c(nc(N)[nH]c2=O)NC[C@@H]1CNc1ccc(C(=O)N[C@@H](CCC(=O)O)C(=O)O)cc1 [5-M-THF] | Converting analysis of wild‐type SbGFT and its mutant SbGFT^G219N | – | – | – | – | – | – |
| B1 | – | 153.1 ± 38.2 | 0.0317 ± 0.00167 | 207 | – | – | – |
| B2 | – | – | – | – | 2209.0 ± 1046.0 | 0.075 ± 0.0533 | 34 |
| B3 | – | 3108.0 ± 2675.5 | 0.0783 ± 0.055 | 25.2 | – | – | – |
| B4 | – | 888.0 ± 490.3 | 0.09 ± 0.0233 | 101 | – | – | – |
